Measured values from patent US20260274980A1 (BIOARCTIC, published 2026).

B1: 2A-3 #8 (bispecific antibody, human IgG1, kappa)
heavy: not shown
chain: DIVMTQAPLSLPVSLGDQASISCRSSQSIVHSNGNTYLEWYLQKPGQSPKLLIYKVSNRFSGVPDRFSGSGSGTDFTLKISRVEAEDLGIYYCFQGSHVPPTFGGGTKLEIKRTVAAPSVFIFPPSDEQLKSGTASVVCLLNNFYPREAKVQWKVDNALQSGNSQESVTEQDSKDSTYSLSSTLTLSKADYEKHKVYACEVTHQGLSSPVTKSFNRGECGGGGSDIQMTQSPSSVSASVGDRVTITCKSSQSLLYSTNQKNYLAWYQQKPGKAPKLLIYWASTRESGVPSRFSGSGSGTDFTLTISSLQPEDFATYYCQQYFIYPRTFGQGTKVEIKGGGGSGGGGSGGGGSEVQLVQSGAEVKKPGSSVKVSCKASGYIFTDYNMDWVRQAPGQGLEWIGDINPDADTTSYNEKFKGRATLTVDKSTSTAYMELSSLRSEDTAVYYCARGGYSGSSYYHPMDYWGQGTLVTVSSGGGGSGGGGSGGGGSGGGGSDIVMTQAPLSLPVSLGDQASISCRSSQSIVHSNGNTYLEWYLQKPGQSPKLLIYKVSNRFSGVPDRFSGSGSGTDFTLKISRVEAEDLGIYYCFQGSHVPPTFGGGTKLEIKRTVAAPSVFIFPPSDEQLKSGTASVVCLLNNFYPREAKVQWKVDNALQSGNSQESVTEQDSKDSTYSLSSTLTLSKADYEKHKVYACEVTHQGLSSPVTKSFNRGEC
notes: also called Gen 2A construct #8; VL first
B2: 2A-3 #12 (bispecific antibody, human IgG1, kappa)
heavy: not shown
chain: DIVMTQAPLSLPVSLGDQASISCRSSQSIVHSNGNTYLEWYLQKPGQSPKLLIYKVSNRFSGVPDRFSGSGSGTDFTLKISRVEAEDLGIYYCFQGSHVPPTFGGGTKLEIKRTVAAPSVFIFPPSDEQLKSGTASVVCLLNNFYPREAKVQWKVDNALQSGNSQESVTEQDSKDSTYSLSSTLTLSKADYEKHKVYACEVTHQGLSSPVTKSFNRGECGGGGSGGGGSDIQMTQSPSSVSASVGDRVTITCKSSQSLLYSTNQKNYLAWYQQKPGKAPKLLIYWASTRESGVPSRFSGSGSGTDFTLTISSLQPEDFATYYCQQYFIYPRTFGQGTKVEIKGGGGSGGGGSGGGGSEVQLVQSGAEVKKPGSSVKVSCKASGYIFTDYNMDWVRQAPGQGLEWIGDINPDADTTSYNEKFKGRATLTVDKSTSTAYMELSSLRSEDTAVYYCARGGYSGSSYYHPMDYWGQGTLVTVSSGGGGSGGGGSGGGGSGGGGSGGGGSDIVMTQAPLSLPVSLGDQASISCRSSQSIVHSNGNTYLEWYLQKPGQSPKLLIYKVSNRFSGVPDRFSGSGSGTDFTLKISRVEAEDLGIYYCFQGSHVPPTFGGGTKLEIKRTVAAPSVFIFPPSDEQLKSGTASVVCLLNNFYPREAKVQWKVDNALQSGNSQESVTEQDSKDSTYSLSSTLTLSKADYEKHKVYACEVTHQGLSSPVTKSFNRGEC
notes: also called Gen 2A construct #12; VL first
B3: 2A-3 #14 (bispecific antibody, human IgG1, kappa)
heavy: not shown
chain: DIVMTQAPLSLPVSLGDQASISCRSSQSIVHSNGNTYLEWYLQKPGQSPKLLIYKVSNRFSGVPDRFSGSGSGTDFTLKISRVEAEDLGIYYCFQGSHVPPTFGGGTKLEIKRTVAAPSVFIFPPSDEQLKSGTASVVCLLNNFYPREAKVQWKVDNALQSGNSQESVTEQDSKDSTYSLSSTLTLSKADYEKHKVYACEVTHQGLSSPVTKSFNRGECGGGGSGGGGSGGGGSGGGGSGGGGSDIQMTQSPSSVSASVGDRVTITCKSSQSLLYSTNQKNYLAWYQQKPGKAPKLLIYWASTRESGVPSRFSGSGSGTDFTLTISSLQPEDFATYYCQQYFIYPRTFGQGTKVEIKGGGGSGGGGSGGGGSEVQLVQSGAEVKKPGSSVKVSCKASGYIFTDYNMDWVRQAPGQGLEWIGDINPDADTTSYNEKFKGRATLTVDKSTSTAYMELSSLRSEDTAVYYCARGGYSGSSYYHPMDYWGQGTLVTVSSGGGGSGGGGSGGGGSGGGGSGGGGSDIVMTQAPLSLPVSLGDQASISCRSSQSIVHSNGNTYLEWYLQKPGQSPKLLIYKVSNRFSGVPDRFSGSGSGTDFTLKISRVEAEDLGIYYCFQGSHVPPTFGGGTKLEIKRTVAAPSVFIFPPSDEQLKSGTASVVCLLNNFYPREAKVQWKVDNALQSGNSQESVTEQDSKDSTYSLSSTLTLSKADYEKHKVYACEVTHQGLSSPVTKSFNRGEC
notes: also called Gen 2A construct #14; VL first
B4: 2A-3 #13 (bispecific antibody, human IgG1, kappa)
heavy: not shown
chain: DIVMTQAPLSLPVSLGDQASISCRSSQSIVHSNGNTYLEWYLQKPGQSPKLLIYKVSNRFSGVPDRFSGSGSGTDFTLKISRVEAEDLGIYYCFQGSHVPPTFGGGTKLEIKRTVAAPSVFIFPPSDEQLKSGTASVVCLLNNFYPREAKVQWKVDNALQSGNSQESVTEQDSKDSTYSLSSTLTLSKADYEKHKVYACEVTHQGLSSPVTKSFNRGECGGGGSGGGGSGGGGSDIQMTQSPSSVSASVGDRVTITCKSSQSLLYSTNQKNYLAWYQQKPGKAPKLLIYWASTRESGVPSRFSGSGSGTDFTLTISSLQPEDFATYYCQQYFIYPRTFGQGTKVEIKGGGGSGGGGSGGGGSEVQLVQSGAEVKKPGSSVKVSCKASGYIFTDYNMDWVRQAPGQGLEWIGDINPDADTTSYNEKFKGRATLTVDKSTSTAYMELSSLRSEDTAVYYCARGGYSGSSYYHPMDYWGQGTLVTVSSGGGGSGGGGSGGGGSGGGGSGGGGSDIVMTQAPLSLPVSLGDQASISCRSSQSIVHSNGNTYLEWYLQKPGQSPKLLIYKVSNRFSGVPDRFSGSGSGTDFTLKISRVEAEDLGIYYCFQGSHVPPTFGGGTKLEIKRTVAAPSVFIFPPSDEQLKSGTASVVCLLNNFYPREAKVQWKVDNALQSGNSQESVTEQDSKDSTYSLSSTLTLSKADYEKHKVYACEVTHQGLSSPVTKSFNRGEC
notes: also called Gen 2A construct #13; VL first
B5: 2A-3 #6 (bispecific antibody, human IgG1, kappa)
heavy: not shown
chain: DIVMTQAPLSLPVSLGDQASISCRSSQSIVHSNGNTYLEWYLQKPGQSPKLLIYKVSNRFSGVPDRFSGSGSGTDFTLKISRVEAEDLGIYYCFQGSHVPPTFGGGTKLEIKRTVAAPSVFIFPPSDEQLKSGTASVVCLLNNFYPREAKVQWKVDNALQSGNSQESVTEQDSKDSTYSLSSTLTLSKADYEKHKVYACEVTHQGLSSPVTKSFNRGECGGGGSGGGGSGGGGSEVQLVQSGAEVKKPGSSVKVSCKASGYIFTDYNMDWVRQAPGQGLEWIGDINPDADTTSYNEKFKGRATLTVDKSTSTAYMELSSLRSEDTAVYYCARGGYSGSSYYHPMDYWGQGTLVTVSSGGGGSGGGGSGGGGSDIQMTQSPSSVSASVGDRVTITCKSSQSLLYSTNQKNYLAWYQQKPGKAPKLLIYWASTRESGVPSRFSGSGSGTDFTLTISSLQPEDFATYYCQQYFIYPRTFGQGTKVEIKGGGGSGGGGSGGGGSGGGGSGGGGSDIVMTQAPLSLPVSLGDQASISCRSSQSIVHSNGNTYLEWYLQKPGQSPKLLIYKVSNRFSGVPDRFSGSGSGTDFTLKISRVEAEDLGIYYCFQGSHVPPTFGGGTKLEIKRTVAAPSVFIFPPSDEQLKSGTASVVCLLNNFYPREAKVQWKVDNALQSGNSQESVTEQDSKDSTYSLSSTLTLSKADYEKHKVYACEVTHQGLSSPVTKSFNRGEC
notes: also called Gen 2A construct #6; VH first
B6: 2A-3 #3 (bispecific antibody, human IgG1, kappa)
heavy: not shown
chain: DIVMTQAPLSLPVSLGDQASISCRSSQSIVHSNGNTYLEWYLQKPGQSPKLLIYKVSNRFSGVPDRFSGSGSGTDFTLKISRVEAEDLGIYYCFQGSHVPPTFGGGTKLEIKRTVAAPSVFIFPPSDEQLKSGTASVVCLLNNFYPREAKVQWKVDNALQSGNSQESVTEQDSKDSTYSLSSTLTLSKADYEKHKVYACEVTHQGLSSPVTKSFNRGECGGGGSGGGGSGGGGSEVQLVQSGAEVKKPGSSVKVSCKASGYIFTDYNMDWVRQAPGQGLEWIGDINPDADTTSYNEKFKGRATLTVDKSTSTAYMELSSLRSEDTAVYYCARGGYSGSSYYHPMDYWGQGTLVTVSSGGGGSGGGGSGGGGSDIQMTQSPSSVSASVGDRVTITCKSSQSLLYSTNQKNYLAWYQQKPGKAPKLLIYWASTRESGVPSRFSGSGSGTDFTLTISSLQPEDFATYYCQQYFIYPRTFGQGTKVEIKGGGGSGGGGSGGGGSGGGGSDIVMTQAPLSLPVSLGDQASISCRSSQSIVHSNGNTYLEWYLQKPGQSPKLLIYKVSNRFSGVPDRFSGSGSGTDFTLKISRVEAEDLGIYYCFQGSHVPPTFGGGTKLEIKRTVAAPSVFIFPPSDEQLKSGTASVVCLLNNFYPREAKVQWKVDNALQSGNSQESVTEQDSKDSTYSLSSTLTLSKADYEKHKVYACEVTHQGLSSPVTKSFNRGEC
notes: also called Gen 2A construct #3; VH first
B7: bispecific binding molecule (format of WO2022/258841) comprising h26D3 LC1 scFv (bispecific antibody, V domains shown)
VH: EVQLVQSGAEVKKPGSSVKVSCKASGYIFTDYNMDWVRQAPGQGLEWIGDINPDYDTTSYNEKFKGRATLTVDKSTSTAYMELSSLRSEDTAVYYCARGGYSGSSYYHPMDYWGQGTLVTVSS
VL: DIQMTQSPSSVSASVGDRVTITCKSSQSLLASTNQKNYLAWYQQKPGKAPKLLIYWASTRESGVPSRFSGSGSGTDFTLTISSLQPEDFATYYCQQYFIYPRTFGQGTKVEIK
B8: 2A-3 #5 (bispecific antibody, human IgG1, kappa)
heavy: not shown
chain: DIVMTQAPLSLPVSLGDQASISCRSSQSIVHSNGNTYLEWYLQKPGQSPKLLIYKVSNRFSGVPDRFSGSGSGTDFTLKISRVEAEDLGIYYCFQGSHVPPTFGGGTKLEIKRTVAAPSVFIFPPSDEQLKSGTASVVCLLNNFYPREAKVQWKVDNALQSGNSQESVTEQDSKDSTYSLSSTLTLSKADYEKHKVYACEVTHQGLSSPVTKSFNRGECGGGGSGGGGSEVQLVQSGAEVKKPGSSVKVSCKASGYIFTDYNMDWVRQAPGQGLEWIGDINPDADTTSYNEKFKGRATLTVDKSTSTAYMELSSLRSEDTAVYYCARGGYSGSSYYHPMDYWGQGTLVTVSSGGGGSGGGGSGGGGSDIQMTQSPSSVSASVGDRVTITCKSSQSLLYSTNQKNYLAWYQQKPGKAPKLLIYWASTRESGVPSRFSGSGSGTDFTLTISSLQPEDFATYYCQQYFIYPRTFGQGTKVEIKGGGGSGGGGSGGGGSGGGGSGGGGSDIVMTQAPLSLPVSLGDQASISCRSSQSIVHSNGNTYLEWYLQKPGQSPKLLIYKVSNRFSGVPDRFSGSGSGTDFTLKISRVEAEDLGIYYCFQGSHVPPTFGGGTKLEIKRTVAAPSVFIFPPSDEQLKSGTASVVCLLNNFYPREAKVQWKVDNALQSGNSQESVTEQDSKDSTYSLSSTLTLSKADYEKHKVYACEVTHQGLSSPVTKSFNRGEC
notes: also called Gen 2A construct #5; VH first

Columns and labels:
[1] = molecular target: T1, human transferrin receptor 1 (hTfR1) on cell surfaces (human, UniProt P02786 1-760); test: flow cytometry, Ramos cells
T1 construct: Endogenous receptor on hCMEC/D3, THP-1, K562 and Ramos cells; also called CD71; endogenous hTfR1
T1 sequence (P02786 whole entry): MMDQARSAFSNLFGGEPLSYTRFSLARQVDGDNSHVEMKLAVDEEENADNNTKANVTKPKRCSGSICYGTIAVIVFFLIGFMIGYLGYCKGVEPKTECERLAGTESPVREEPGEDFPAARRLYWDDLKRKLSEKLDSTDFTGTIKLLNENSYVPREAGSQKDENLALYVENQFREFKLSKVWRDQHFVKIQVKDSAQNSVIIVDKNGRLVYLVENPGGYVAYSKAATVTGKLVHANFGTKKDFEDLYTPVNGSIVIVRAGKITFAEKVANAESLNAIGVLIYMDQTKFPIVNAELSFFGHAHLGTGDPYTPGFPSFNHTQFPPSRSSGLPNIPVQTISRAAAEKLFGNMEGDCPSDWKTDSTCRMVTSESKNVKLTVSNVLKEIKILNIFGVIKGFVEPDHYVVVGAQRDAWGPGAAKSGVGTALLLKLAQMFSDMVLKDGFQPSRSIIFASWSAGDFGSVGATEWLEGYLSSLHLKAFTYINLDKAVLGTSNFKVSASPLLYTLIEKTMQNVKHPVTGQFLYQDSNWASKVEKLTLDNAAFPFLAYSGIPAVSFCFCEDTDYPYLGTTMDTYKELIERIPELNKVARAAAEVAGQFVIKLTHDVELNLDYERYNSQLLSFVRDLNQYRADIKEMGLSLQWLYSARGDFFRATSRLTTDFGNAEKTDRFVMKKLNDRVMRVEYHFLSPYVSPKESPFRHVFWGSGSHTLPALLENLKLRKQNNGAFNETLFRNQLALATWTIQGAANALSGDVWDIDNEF
Procedure: (§1) Binding to hTfR1 on cells was measured on the immortalized human B lymphocyte cell line Ramos (Sigma, cat: 85030802). This cell line is known for expressing high levels of hTfR1 on the cell surface. Fcγ receptors were blocked using Fc receptor blocker (Innovex biosciences, #NB309-4X-40) for 30 min at 4° C., after which the cells were washed in PBS. The cells were seeded in a 96 well V bottom plate (#249570, Thermo Scientific Nunc), and serially diluted Gen 2A constructs were added and the plate was incubated at 4° C. overnight. The cells were washed with PBS with 1% BSA and then fixed with freshly prepared 4% formaldehyde (Thermo Scientific Pierce, #28906) diluted in PBS for 15 min at room temperature. The cells were washed with PBS containing 1% BSA, and then stained. […] Staining was carried out for 30 min at 4° C. After incubation with the detection reagent, cells were washed with PBS containing 1% BSA. The cells were finally resuspended in 200 μl PBS with 1% BSA and acquired using a BD FACSLyric flow cytometer system (BD Biosciences). Samples were analyzed using flowJo software (BD Biosciences).

[2] = molecular target: T1, human transferrin receptor 1 (hTfR1) on …; test: flow cytometry on Ramos cells (hTfR1 on the surface), Fc receptors blocked, overnight at 4 °C, detection with anti-human IgG-Alexa Fluor 488
Procedure: as §1

[3] = molecular target: T2, truncated hTfR1 of SEQ ID NO:86 (human, UniProt P02786 122-760); test: SPR, hTfR1 amine-coupled, scFv in bispecific format injected
T2 construct: Given only as 'truncated hTfR1'; amine-coupled to a CM5 chip for SPR; also called human TfR1

Binder | binding result [1] | binding result [2] | also measured
B1 | binds | – | –
B2 | – | binds | –
B3 | – | binds | –
B4 | – | binds | –
B5 | binds | – | –
B6 | binds | – | –
B7 | – | – | Kd [3]: ~40 nM
B8 | binds | – | –
